# Test results reported in publication PMC7157769.
# Columns and labels:
# Assay in all cases: ELISA; affinity-based ELISA; 5 ug/ml of each dockerin-containing enzyme immobilised on a MaxiSorp plate; CBM-Coh modules applied at 0.01 ng/ml to 100 ug/ml (Fig. S4: 1 or 10 ug/ml); detected with rabbit anti-CBD
# [1] = target: GH44A (GH44A-Doc), dockerin-containing glycoside hydrolase of C. saccharoperbutylacetonicum (Clostridium saccharoperbutylacetonicum N1-4 (HMT))
# [2] = target: GH74A (GH74A-Doc), dockerin-containing glycoside hydrolase of C. saccharoperbutylacetonicum (Clostridium saccharoperbutylacetonicum N1-4 (HMT))
# [3] = target: GH9B (GH9B-CBM3c-Doc), dockerin-containing glycoside hydrolase of C. saccharoperbutylacetonicum (Clostridium saccharoperbutylacetonicum N1-4 (HMT))
# [4] = target: GH48A (GH48A-Doc), dockerin-containing glycoside hydrolase of C. saccharoperbutylacetonicum (Clostridium saccharoperbutylacetonicum N1-4 (HMT))
# [5] = target: GH5B (GH5B-Doc), dockerin-containing glycoside hydrolase of C. saccharoperbutylacetonicum (Clostridium saccharoperbutylacetonicum N1-4 (HMT))
substance,measurement,setting,value
"X2-Coh2 of the scaffoldin ScaA, fused to a CBM cassette (domain or fragment)",pEC50,[1],4
same,pEC50,[2],4
same,pEC50,[3],2.4
"X2-Coh1 of the scaffoldin ScaA, fused to a CBM cassette (domain or fragment)",pEC50,[1],4
same,pEC50,[4],3
same,pEC50,[5],2.5
same,pEC50,[3],0.7
